According to patent US20250340658A1 (TWIST BIOSCIENCE, published 2025):
Residue numbers refer to the chain shown, from its start. Where two headings read alike, the source gives them in different places.

B1: GLP1R-221-065 (antibody, V domains shown)
VH: QVQLVESGGGVVQPGRSLRLSCAASGFTFNNYAMHWVRQAPGKGLEWVAVISYDRSNEYYADSVKGRFTISRDNSKNTLYLQMNSLRAEDTAVYYCAKHMSMQEGAVTGDGQAAKEFIAWLVKGRVRADLVGDAFDVWGQGTLVTVSS
VL: QSVLTQPPSVSAAPGQKVTISCSGTTSNIANNFVSWYQQLPGTAPKLLIYDHNKRPSGIPDRFSGSKSGTSATLGITGLQTGDEADYYCGTWDTSLSAGAFGGGTKLTVL
notes: IgG
B2: GLP1R-221-092 (antibody, V domains shown)
VH: B1 VH with T28I, A33G, V50F, D54G, R55G, E58K, D110E, A114V
VL: B1 VL with H52N, S57P, A98V, A100M
notes: IgG
B3: GLP1R-221-075 (antibody, V domains shown)
VH: B1 VH with N30S, A33P, R55E, S56T, E58K, D110E, R125I
VL: B1 VL with T25S, T26G, A30G, F33D, H52N, N53D, S57A, A98N, G99Y, A100V
notes: IgG
B4: GLP1R-221-076 (antibody, V domains shown)
VH: B1 VH with A33P, R55E, S56T, E58K, D110E, R125I
VL: QSVLTQPPSVSAAPGQKVTISCSGTSSNIGNNDVSWYQQLPGTAPKLLIYENNKRHSGIPDRFSGSKSGTSATLGITGLQTGDEADYYCLTWDHSLTAYVFGGGTKLTVL
notes: IgG
B5: GLP1R-221-034 (antibody, V domains shown)
VH: B1 VH with T28P, N30S, A33G, Y53H, E58K, D110E, A114V
VL: QSVLTQPPSVSAAPGQKVTISCSGSSSNIGNNPVSWYQQLPGTAPKLLIYENDNRPSGIPDRFSGSKSGTSATLGITGLQTGDEADYYCATWDRGLSTGVFGGGTKLTVL
notes: IgG
B6: GLP1R-221-017 (antibody, V domains shown)
VH: B1 VH with N30S, N31D, A33G, M34V, V50F, R55E, E58K, D110E, G111Y
VL: B5 VL with N32T, P33Y, E51D, N52D, D53Y, N54K, R94A, G95T, S97N
notes: IgG
B7: GLP1R-221-033 (antibody, V domains shown)
VH: B1 VH with T28S, N30S, Y53H, E58K, D110E, E116D
VL: B5 VL with N32E, P33Y, E51D, D53N, N54K, P56V, R94T, G95S, S97N, T98V
notes: IgG
B8: GLP1R-222-073 (antibody, V domains shown)
VH: B1 VH with N30R, N31D, A33G, V50F, S52R, R55E, S56I, E58K, D110E, K123G
VL: B5 VL with S26G, P33D, E51D, D53N, N54K, P56A, A90G, L96P, S97N
notes: IgG
B9: GLP1R-221-066 (antibody, V domains shown)
VH: B1 VH with D110E, A114I
VL: B5 VL with P33Y, V34L, D53N, N54K, A90G, T91I, G95S, T98A, G99W
notes: IgG
B10: GLP1R-222-056 (antibody, V domains shown)
VH: B1 VH with T28P, N30S, N31S, E58K, D110Y, R125F
VL: QSVLTQPPSVSAAPGQKVTISCSGSSSNIGSNYISWYQQLPGTAPKLLIYDNDKRPAGIPDRFSGSKSGTSATLGITGLQTGDEADYYCGTWDTSLSVGEFGGGTKLTVL
notes: IgG
B11: GLP1R-222-081 (antibody, V domains shown)
VH: B1 VH with N30D, M34L, V50L, R55A, S56G, E58K, D110E, R125F
VL: B10 VL with N32D, I34V, D53N, P56S, A57S, T94E, S97R, V98S, G99W, E100V
notes: IgG
B12: GLP1R-221-084 (antibody, V domains shown)
VH: B1 VH with T28A, N30S, A33G, Y53S, R55E, S56N, E58K, D110E, G111M
VL: B10 VL with G30A, S31D, I34V, D51E, D53N, K54R, A57S, T94V, E100M
notes: IgG
B13: GLP1R-222-014 (antibody, V domains shown)
VH: B1 VH with T28A, N30S, A33G, A49S, V50F, R55E, E58K, S85N, D110E, G111W
VL: B4 VL with T25S, N32H, E51D, L90G, H94T, T97S, Y99G
notes: IgG
B14: GLP1R-221-009 (antibody, V domains shown)
VH: B1 VH with T28I, N30S, A33G, Y53D, D54E, R55G, E58K, D110A
VL: B10 VL with S31N, N32Q, I34V, N52D, D53H, A57S
notes: IgG
B15: GLP1R-222-012 (antibody, V domains shown)
VH: B1 VH with A33G, Y53D, D54E, R55G, E58K, D110V
VL: B10 VL with S31N, Y33D, I34V, N52D, A57S
notes: IgG
B16: GLP1R-222-023 (antibody, V domains shown)
VH: B1 VH with T28S, N30S, N31D, A33G, V50F, R55A, S56N, E58K, D110E, G111W
VL: B5 VL with P33D, D53T, N54K, A90G, R94A
notes: IgG
B17: GLP1R-222-082 (antibody, V domains shown)
VH: B1 VH with N30S, N31A, A33S, V50L, R55A, S56T, E58K, D110E, G111F
VL: B10 VL with N32K, I34V, D53N, A57S, T94I, L96P, V98A, G99W, E100V
notes: IgG
B18: GLP1R-222-052 (antibody, V domains shown)
VH: B1 VH with A33P, R55E, E58K, D110G
VL: B5 VL with N31K, N32R, P33S, E51D, D53N, N54K, P56A, A90V, G95S, T98A
notes: IgG
B19: GLP1R-222-090 (antibody, V domains shown)
VH: QVQLVESGGGVVQPGRSLRLSCAASGFSFSDYGIHWVRQAPGKGLEWVALISYEGSNKYYADSVKGRFTISRDNSKNTLYLQMNSLRAEDTAVYYCAKHMSMQEGAVTGEKQAAKEFIAWLVKGRVRADLVGDAFDVWGQGTLVTVSS
VL: B5 VL with G30A, N31D, P33Y, E51D, D53N, N54K, P56A, R94N, G95R, T98A
notes: IgG

How the values were obtained:
[1] = target: T1, full length human GLP-1R with N-terminal FLAG tag and C-terminal GFP tag, on CHO cells (human, UniProt P43220 24-463); test: flow cytometry, expressing minus parent CHO cells
T1 construct: whole, on cells; the cell line itself is tied to UniProt P43220; also called FLAG-GLP-1R-GFP; CHO-GLP-1R
Method: (§1) GLP-1R IgG clones were tested in a binding assay coupled to flow cytometry analysis as follows: FLAG-GLP-1R-GFP expressing CHO cells (CHO-GLP-1R) and CHO-parent cells were incubated with 100 nM IgG for 1 h on ice, washed three times and incubated with Alexa 647 conjugated goat-anti-human antibody (1:200) (Jackson ImmunoResearch Laboratories, 109-605-044) for 30 min on ice, followed by three washes, centrifuging to pellet the cells between each washing step. All incubations and washes were in buffer containing PBS+1% BSA. […] Cells were analyzed by flow cytometry and hits (a hit is an IgG that specifically binds to CHO-GLP-1R) were identified by measuring the GFP signal against the Alexa 647 signal. Flow cytometry data of binding assays with 100 nM IgG are presented as dot plots. Analyses of binding assays with IgG titrations are presented as binding curves plotting IgG concentrations against MFI (mean fluorescence intensity).

[2] = target: T1, full length human GLP-1R with …; test: flow cytometry, expressing vs parent CHO cells
Method: as §1

[3] = target: T1, full length human GLP-1R with …; test: flow cytometry, expressing vs parent CHO cells; remark: listed apart in the source
Method: as §1

[4] = target: T1, full length human GLP-1R with …; test: flow cytometry, GLP1R-expressing CHO cells
Method: as §1

[5] = target: T1, full length human GLP-1R with …; test: flow cytometry titration, CHO GLP1R cells
Method: as §1

[6] = target: T1, full length human GLP-1R with …; test: flow cytometry, GLP1R-expressing CHO cells; remark: listed apart in the source
Method: as §1

[7] = target: T1, full length human GLP-1R with …; test: flow cytometry, expressing vs parent CHO cells; remark: listed apart in the source
Method: as §1

[8] = target: T1, full length human GLP-1R with …; test: flow cytometry, expressing minus parent CHO cells; remark: listed apart in the source
Method: as §1

[9] = target: T1, full length human GLP-1R with …; test: flow cytometry titration, CHO GLP1R cells; remark: listed apart in the source
Method: as §1

[10] = target: T1, full length human GLP-1R with …; test: flow cytometry, expressing vs parent CHO cells; remark: listed apart in the source
Method: as §1

Row | Binder | Subtraction [1] | MFI Ratio [2] | MFI Ratio [3] | Median RL1-H of Expressing Singlets [4] | Bmax [5] | EC50 [5] [nM] | Median RL1-H of Expressing Singlets [6] | MFI Ratio [7] | Subtraction [8] | Bmax [9] | EC50 [9] [nM] | MFI Ratio [10]
1 | B1 | 272000 | 914 | 915 | 273000 | 798000 | – | – | – | – | – | – | –
2 | B2 | 232000 | 712 | 712 | 232000 | 145000 | 13.3 | – | – | – | – | – | –
3 | B3 | 242000 | 1170 | 1170 | 242000 | 213000 | – | – | – | – | – | – | –
4 | B4 | 236000 | 747 | 747 | 236000 | 799000 | – | – | – | – | – | – | –
5 | B5 | 223000 | 711 | 711 | 223000 | 933000 | – | – | – | – | – | – | –
6 | B6 | 240000 | 1480 | 1480 | 241000 | 250000 | 27.6 | – | – | – | – | – | –
7 | B7 | 240000 | 1020 | 1020 | 240000 | 167000 | 9.04 | – | – | – | – | – | –
8 | B8 | – | – | – | – | – | – | 225000 | 984 | 225000 | 151000 | 13.1 | 984
9 | B9 | 222000 | 928 | 928 | 223000 | 172000 | 57.4 | – | – | – | – | – | –
10 | B10 | – | – | – | – | – | – | 218000 | 946 | 217000 | 293000 | 77.4 | 946
11 | B11 | – | – | – | – | – | – | 221000 | 850 | 221000 | 194000 | 22.5 | 850
12 | B12 | 221000 | 1070 | 1070 | 221000 | 287000 | 4.09 | – | – | – | – | – | –
13 | B13 | – | – | – | – | – | – | 237000 | 794 | 237000 | 213000 | 34.3 | 794
14 | B14 | 220000 | 1120 | 1120 | 221000 | 215000 | 12.5 | – | – | – | – | – | –
15 | B15 | – | – | – | – | – | – | 225000 | 775 | 225000 | 234000 | 23.1 | 775
16 | B16 | – | – | – | – | – | – | 241000 | 778 | 241000 | 220000 | 18.4 | 778
17 | B17 | – | – | – | – | – | – | 224000 | 711 | 224000 | 135000 | 11.5 | 711
18 | B18 | – | – | – | – | – | – | 378000 | 13.7 | 350000 | 228000 | 17.4 | 13.7
19 | B19 | – | – | – | – | – | – | 227000 | 525 | 227000 | 1.08e+06 | – | 525
